Assay results from patent publication EP0927045B1 (The Burnham Institute, dated 1998).
Where no end group is shown, it is not given here.

Target: αvβ3 integrin expressed on blood vessels forming in the tumor
Test: cell-based or functional assay

B1: phage expressing the RGD-containing peptide CDCRGDCFC (SEQ ID NO: 1) (peptide)
chain: CDCRGDCFC
modifications: not fully specified (bridges); cysteine pairing not given here; also: peptide displayed on filamentous phage (fuse5), up to five copies
phage concentrated in the breast tumor after iv injection (in vivo homing), RGD phage against unselected phage: 80 fold
